Target: monoclonal antibody M75 (MAb M75), secreted by hybridoma VU-M75, ATCC HB 11128
Assay: competition ELISA (peptide against immobilized GST-MN for M75)

GGSSGEDDPLGEEDLPSEEDSP [oligopeptide … (aa 51-72) [SEQ ID NO: 104]] was tested, and the IC50 was 1 ng/mL.
